From patent US20210094988A1 (UNIVERSITY OF FLORIDA RESEARCH FOUNDATION, published 2021) come the findings set out here.

This data set concerns the molecule itself. The data set can be described thus: X-ray crystallography, homodimer in the crystal.

B1: recombinant SP-free Coprinus comatus Y3 protein (monomer) (other)
chain: QDPLSCYDNFGNRDVAACARFIDDFCDTLTPNIYRPRDNGQRCYVVNGHKCDFTVFNTNNGGSPIRASTPNCKTVLRAAANRCPTGGRGKINPSAPFLFAIDPNDGDCSTDF
modifications: pyroglutamic acid (PCA) formed from Gln19; four intramolecular disulfide bridges Cys24-Cys101, Cys36-Cys69, Cys61-Cys126, Cys44-Cys90
notes: also called recombinant Y3; mature recombinant Y3 protein
For B1, the binding result is “binds”.
